Test results published in patent publication JP2016028048A (dated 2016).

T1: ヒト組織因子経路インヒビター (human TFPI) (human, UniProt P10646 29-304, limits assumed)
T1 construct: Coated on Maxisorp plates (ELISA) or amine-coupled to a CM5 chip (Biacore); also called ヒトTFPI; hTFPI
T1 sequence (looked up): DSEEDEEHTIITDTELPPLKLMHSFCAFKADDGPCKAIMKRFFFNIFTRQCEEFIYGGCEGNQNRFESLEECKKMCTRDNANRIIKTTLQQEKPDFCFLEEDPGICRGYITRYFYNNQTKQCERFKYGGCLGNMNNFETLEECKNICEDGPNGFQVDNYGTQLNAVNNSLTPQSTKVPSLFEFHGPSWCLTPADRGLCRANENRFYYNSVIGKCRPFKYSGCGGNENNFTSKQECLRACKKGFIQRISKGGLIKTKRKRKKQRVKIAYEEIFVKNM

B1: TP-3A3 (Fab, V domains shown)
VH: QVQLVESGGGLVQPGGSLRLSCAASGFTFNNNAISWVRQAPGKGLEWVSAINSSSSSTSYADSVKGRFTISRDNSKNTLYLQMNSLRAEDTAVYYCARGHHRGHSWASFIDYWGQGTLVTVSS
VL: DIELTQPPSVSVAPGQTARISCSGDNIGSKYVHWYQQKPGQAPVVVIYEDSDRPSGIPERFSGSNSGNTATLTISGTQAEDEADYYCQSWDKSEGYVFGGGTKLTVLG
notes: Human Fab (HuCal Gold), made in E. coli TG1
B2: TP-2G9 (Fab, V domains shown)
VH: QVQLVESGGGLVQPGGSLRLSCAASGFTFNSYAMTWVRQAPGKGLEWVSAIKSDGSNTYYADSVKGRFTISRDNSKNTLYLQMNSLRAEDTAVYYCARNDSGWFDVWGQGTLVTVSS
VL: DIALTQPASVSGSPGQSITISCTGTSSDLGGFNTVSWYQQHPGKAPKLMIYSVSSRPSGVSNRFSGSKSGNTASLTISGLQAEDEADYYCQSYDLNNLVFGGGTKLTVLG
notes: as for B1
B3: TP-2G4 (Fab, V domains shown)
VH: QVQLVESGGGLVQPGGSLRLSCAASGFTFSSYAMTWVRQAPGKGLEWVSNISYSGSNTYYADSVKGRFTISRDNSKNTLYLQMNSLRAEDTAVYYCARVGYYYGFDYWGQGTLVTVSS
VL: DIELTQPPSVSVAPGQTARISCSGDALRKHYVYWYQQKPGQAPVLVIYGDNNRPSGIPERFSGSNSGNTATLTISGTQAEDEADYYCQSYDKPYPILVFGGGTKLTVLG
notes: as for B1
B4: TP-2A2 (Fab, V domains shown)
VH: QVQLVESGGGLVQPGGSLRLSCAASGFTFSNNAMNWVRQAPGKGLEWVSTISYDGSNTYYADSVKGRFTISRDNSKNTLYLQMNSLRAEDTAVYYCARQAGGWTYSYTDVWGQGTLVTVSS
VL: DIELTQPPSVSVAPGQTARISCSGDNIRTYYVHWYQQKPGQAPVVVIYGDSKRPSGIPERFSGSNSGNTATLTISGTQAEDEADYYCQSYDSEADSEVFGGGTKLTVLG
notes: as for B1
B5: TP-2G7 (Fab, V domains shown)
VH: QVQLVESGGGLVQPGGSLRLSCAASGFTFNSYAMSWVRQAPGKGLEWVSNISSNSSNTYYADSVKGRFTISRDNSKNTLYLQMNSLRAEDTAVYYCARKGGGEHGFFPSDIWGQGTLVTVSS
VL: DIELTQPPSVSVAPGQTARISCSGDNLGTYYVHWYQQKPGQAPVLVIYGDNNRPSGIPERFSGSNSGNTATLTISGTQAEDEADYYCQTYDSNNESIVFGGGTKLTVLG
notes: as for B1
B6: TP-2D7 (Fab, V domains shown)
VH: QVQLQQSGPGLVKPSQTLSLTCAISGDSVSSNSAAWGWIRQSPGRGLEWLGLIYYRSKWYNDYAVSVKSRITINPDTSKNQFSLQLNSVTPEDTAVYYCARFGDTNRNGTDVWGQGTLVTVSS
VL: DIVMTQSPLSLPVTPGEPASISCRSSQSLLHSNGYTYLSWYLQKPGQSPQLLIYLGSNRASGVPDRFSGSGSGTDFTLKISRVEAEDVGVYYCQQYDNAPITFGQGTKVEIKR
notes: as for B1
B7: TP-2C1 (Fab, V domains shown)
VH: QVQLVESGGGLVQPGGSLRLSCAASGFTFSPYVMSWVRQAPGKGLEWVSSISSSSSNTYYADSVKGRFTISRDNSKNTLYLQMNSLRAEDTAVYYCARGDSYMYDVWGQGTLVTVSS
VL: DIELTQPPSVSVAPGQTARISCSGDSIGSYYAHWYQQKPGQAPVLVIYYDSKRPSGIPERFSGSNSGNTATLTISGTQAEDEADYYCQAYTGQSISRVFGGGTKLTVLG
notes: as for B1
B8: TP-2E5 (Fab, V domains shown)
VH: QVQLQQSGPGLVKPSQTLSLTCAISGDSVSSNSAAWSWIRQSPGRGLEWLGMIFYRSKWNNDYAVSVKSRITINPDTSKNQFSLQLNSVTPEDTAVYYCARVNANGYYAYVDLWGQGTLVTVSS
VL: DIQMTQSPSSLSASVGDRVTITCRASQPIYNSLSWYQQKPGKAPKLLIYGVSNLQSGVPSRFSGSGSGTDFTLTISSLQPEDFAVYYCLQVDNLPITFGQGTKVEIKR
notes: as for B1
B9: TP-2A5.1 (Fab, V domains shown)
VH: QVQLVESGGGLVQPGGSLRLSCAASGFTFSSYGSWVRQAPGKGLEWVSVISGSGSSTYYADSVKGRFTISRDNSKNTLYLQMNSLRAEDTAVYYCARVNISTHFDVWGQGTLVTVSS
VL: DIELTQPPSVSVAPGQTARISCSGDNIPEKYVHWYQQKPGQAPVLVIHGDNNRPSGIPERFSGSNSGNTATLTISGTQAEDEADYYCQSFDAGSYFVFGGGTKLTVLG
notes: as for B1
B10: TP-2F9 (Fab, V domains shown)
VH: QVQLVESGGGLVQPGGSLRLSCAASGFTFYKYAMHWVRQAPGKGLEWVSGIQYDGSYTYYADSVKGRFTISRDNSKNTLYLQMNSLRAEDTAVYYCARYYCKCVDLWGQGTLVTVSS
VL: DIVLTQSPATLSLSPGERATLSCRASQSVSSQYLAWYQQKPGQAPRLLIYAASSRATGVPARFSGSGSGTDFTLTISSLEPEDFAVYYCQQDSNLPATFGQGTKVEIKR
notes: as for B1
B11: TP-2G2 (Fab, V domains shown)
VH: QVQLVESGGGLVQPGGSLRLSCAASGFTFSSYAMNWVRQAPGKGLEWVSAILSDGSSTSYADSVKGRFTISRDNSKNTLYLQMNSLRAEDTAVYYCARYPDWGWYTDVWGQGTLVTVSS
VL: DIELTQPPSVSVAPGQTARISCSGDNIRKFYVHWYQQKPGQAPVLVIYGTNKRPSGIPERFSGSNSGNTATLTISGTQAEDEADYYCQSYDSKFNTVFGGGTKLTVLG
notes: as for B1
B12: TP-2B9 (Fab, V domains shown)
VH: QVQLQQSGPGLVKPSQTLSLTCAISGDSVSSNSAAWGWIRQSPGRGLEWLGMIYHRSKWYNDYAVSVKSRITINPDTSKNQFSLQLNSVTPEDTAVYYCARYSSIGHMDYWGQGTLVTVSS
VL: DIQMTQSPSSLSASVGDRVTITCRASQSIRSYLAWYQQKPGKAPKLLIYKASNLQSGVPSRFSGSGSGTDFTLTISSLQPEDFAVYYCHQYSDSPVTFGQGTKVEIKR
notes: as for B1
B13: TP-2E3 (Fab, V domains shown)
VH: QVQLQQSGPGLVKPSQTLSLTCAISGDSVSSNSAAWGWIRQSPGRGLEWLGMIYYRSKWYNDYAVSVKSRITINPDTSKNQFSLQLNSVTPEDTAVYYCARVNQYTSSDYWGQGTLVTVSS
VL: DIALTQPASVSGSPGQSITISCTGTSSDIGGYNYVSWYQQHPGKAPKLMIYGVNYRPSGVSNRFSGSKSGNTASLTISGLQAEDEADYYCSSADKFTMSIVFGGGTKLTVLG
notes: as for B1
B14: TP-2H10 (Fab, V domains shown)
VH: QVQLQQSGPGLVKPSQTLSLTCAISGDSVSSNGAAWGWIRQSPGRGLEWLGFIYRRSKWYNSYAVSVKSRITINPDTSKNQFSLQLNSVTPEDTAVYYCARQDGMGGMDSWGQGTLVTVSS
VL: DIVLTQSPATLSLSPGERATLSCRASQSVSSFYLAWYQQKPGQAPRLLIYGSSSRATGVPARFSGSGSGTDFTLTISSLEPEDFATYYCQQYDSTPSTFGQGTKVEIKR
notes: as for B1
B15: TP-2G5 (Fab, V domains shown)
VH: QVQLQQSGPGLVKPSQTLSLTCAISGDSVSSNSAAWSWIRQSPGRGLEWLGFIYYRSKWYNDYAVSVKSRITINPDTSKNQFSLQLNSVTPEDTAVYYCARHNPDLGFDYWGQGTLVTVSS
VL: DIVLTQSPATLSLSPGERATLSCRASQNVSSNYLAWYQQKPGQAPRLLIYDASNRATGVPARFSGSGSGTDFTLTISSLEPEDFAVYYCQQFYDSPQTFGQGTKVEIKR
notes: as for B1
B16: TP-3A2 (Fab, V domains shown)
VH: QVQLVESGGGLVQPGGSLRLSCAASGFTFSNYYLSWVRQAPGKGLEWVSGISYNGSSTNYADSVKGRFTISRDNSKNTLYLQMNSLRAEDTAVYYCARMWRYSLGADSWGQGTLVTVSS
VL: DIELTQPPSVSVAPGQTARISCSGDNIGSRYAYWYQQKPGQAPVVVIYDDSDRPSGIPERFSGSNSGNTATLTISGTQAEDEADYYCAAYTFYARTVFGGGTKLTVLG
notes: as for B1

Biological target: T1, ヒト組織因子経路インヒビター (human TFPI)
Assay: ELISA, Fab in bacterial lysate on human TFPI-coated plate

Binding result, binds:
B1
B2
B3
B4
B5
B6
B7
B8
B9
B10
B11
B12
B13
B14
B15
B16
